Experimental data published in paper doi:10.1101/2025.10.16.681972 (bioRxiv, 2025).

Molecular target: recombinant soluble form (ectodomain) of human MERTK (Homo sapiens, UniProt Q12866)
Assay: SPR

recombinant soluble form (ectodomain) of human MERTK, sequence (Q12866 21-505): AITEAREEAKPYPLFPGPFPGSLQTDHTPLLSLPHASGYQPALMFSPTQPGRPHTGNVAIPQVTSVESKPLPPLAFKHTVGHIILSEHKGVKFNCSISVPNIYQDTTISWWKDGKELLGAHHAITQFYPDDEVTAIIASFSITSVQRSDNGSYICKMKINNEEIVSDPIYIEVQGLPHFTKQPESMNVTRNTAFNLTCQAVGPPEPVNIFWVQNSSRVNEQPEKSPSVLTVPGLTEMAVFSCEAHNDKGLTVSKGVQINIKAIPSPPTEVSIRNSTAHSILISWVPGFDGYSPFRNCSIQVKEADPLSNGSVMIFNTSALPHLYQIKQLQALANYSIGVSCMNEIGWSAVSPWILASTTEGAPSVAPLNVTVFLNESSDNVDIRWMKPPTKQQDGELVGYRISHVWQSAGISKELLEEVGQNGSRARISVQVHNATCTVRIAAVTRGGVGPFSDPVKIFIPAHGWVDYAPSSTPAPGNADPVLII

B1: recombinant mAb745 (anti-MERTK, variable regions of mAb745 on human IgG1 and kappa constant regions) (antibody, V domains shown)
VH: DVQIQESGPGLVKSSQSLSLTCTVTGYSITNDYAWNWIRQFPGNKLEWMGYISYNGNTFYNPSLKSRISITRDTSKNQFFLQLSSVTTEDTATYYCGRLLPVSYAMDYWGQGTSVTVSS
VL: DVVMTQTPLSLPVSLGDQASISCRSSQSLVHSNGNTYLHWYLQKPGQSPKLLIYKVSNRFSGVPDRFSGSGSGTDFTLKISRVEAEDLGVYFCYQSTHVPWTFGGGTKLEIK
B1: binds.
